{
  "source": "paper PMC4931565",
  "about": "“Higher‐order assemblies of oligomeric cargo receptor complexes form the membrane scaffold of the Cvt vesicle” (EMBO Reports, 2016)",
  "molecules": {"B1": {"name": "Saccharomyces cerevisiae Ams1 (alpha-mannosidase 1), wild type (natural protein, S. cerevisiae, UniProt P22855 1-1083, looked up)", "chain": "MSSEDIIYDPQFKPVQGIYENRLRQFIDTGGDYHDLNLPKFYDKKRISLDHDHVKVWWYQVSFERGSSPVSPDKRPSWKSIIERDKKGELEFREANINQPFGPSWSTTWFKVKISLPEDWVKSNEQLLFQWDCSNEGIVIDPKTLIPVTAFSGGERTEYVLPKTSDGKHFFYIEAGNNGMFGCGAGSTINPPDDNRFFHLRKADIVWPDLDARALYIDFWMLGDAARELPGDSWQKHQARQLGNAVMNLFDPNDRSSVRKCRELLQREYFDSFLESSKVYEQGESQVLTNVYGIGNCHIDTAWLWPFAETRRKIVRSWSSQCTLMDRFPEYKFVASQAQQFKWLLEDHPEFFNKVLIPKIQQSQFFAVGGTWVENDTNIPSGESLARQFFFGQRFFLKHFGLKSKIFWLPDTFGYSSQMPQLCRLSGIDKFLTQKLSWNNINSFPHSTFNWAGIDGSQLLTHMPPGNTYTADSHFGDVLRTAKQNKTPEYYGSGLMLYGKGDGGGGPTEEMLQKMRRIRSMNNRNGNVIPKLQVGITVDEFYDDILKRTNQGHDLPTWSGELYFEFHRGTYTSQAQTKKLMRLSEIKLHDLEWIAAKTSVLYPDSYKYPSKQINELWENVLLCQFHDVLPGSCIEMVYKYEAVPMLHNVVKECTSLIDKTVQFLQSQSKADLVEMRTLTWSKPEKVSEECSLNGSYTSSVTGYDDYIVLANGKLKVIICKKTGVITSITDETLGVEYLDTEHGRNKLGANQFVIYDDKPLGWQAWDTELYSVNQYKYVTKPKKVQVSCNTKEKCAVEVIFQISEKCKIKSVISLNATAVTDAKLSKVDISTTVENWDARNKFLKVEFPVNIRNDFASYETQFGITKRPTHYNTSWDVAKFEVCHHKFADYSEYSKGVSILNDCKYGFSTHGNLMRLSLLRSPKAPDAHADMGTHEIKYAIYPHRGALSSDTVKLAHEFNYCFKYKLPKDIGMNFDDIISISGDENVILSNIKRGEDDSAVKSNYSLNPRDEQSIVVRVYESLGGESFASLNTTLNLKRIEKVDNLEMKVYKSLTATRDESNHAINRIPIKLRPFEIASFRLYF", "notes": "alpha-mannosidase 1 (Ams1) of S. cerevisiae, 125-kDa full-length protein (model covers residues up to 1083); Expression from pGAPZ-His6-Ams1; also called His6-Ams1; his-Ams1; source: Pichia pastoris SMD1168, purified"}, "B2": {"name": "Saccharomyces cerevisiae Ams1 W234E mutant (natural protein, S. cerevisiae, UniProt P22855 1-1083, looked up)", "chain": "B1 chain with W234E", "notes": "alpha-mannosidase 1 (Ams1) of S. cerevisiae with W234E in the N-terminal four-helix bundle; Same construct as m4 (pGAPZ-His6-Ams1) with the point mutation; also called W234E dimers; source: Pichia pastoris SMD1168, purified"}, "B3": {"name": "MBP-Atg19 (Saccharomyces cerevisiae Atg19 with N-terminal MBP) (natural protein, S. cerevisiae, UniProt P35193 1-415, looked up)", "chain": "MNNSKTNQQMNTSMGYPLTVYDECNKFQLIVPTLDANIMLWCIGQLSLLNDSNGCKHLFWQPNDKSNVRILLNNYDYGHLFKYLQCQRKCSVYIGEGTLKKYNLTISTSFDNFLDLTPSEEKESLCREDAHEDPVSPKAGSEEEISPNSTSNVVVSRECLDNFMKQLLKLEESLNKLELEQKVTNKEPNHRISGTIDIPEDRSELVNFFTELKTVKQLEDVFQRYHDYERLSQECDSKTEIASDHSKKETKIEVEPPNERSLQITMNQRDNSLYFQLFNNTNSVLAGNCKLKFTDAGDKPTTQIIDMGPHEIGIKEYKEYRYFPYALDLEAGSTIEIENQYGEVIFLGKYGSSPMINLRPPSRLSAESLQASQEPFYSFQIDTLPELDDSSIISTSISLSYDGDDNEKALTWEEL", "notes": "autophagy receptor Atg19 of S. cerevisiae, from cDNA; source: Sf21, purified (amylose beads, eluted with maltose); also in Sf21 lysate, co-expressed with prApe1; not shown: MBP, N-terminal, kept"}, "B4": {"name": "Saccharomyces cerevisiae mApe1 (mature Ape1 lacking the N-terminal propeptide), P14904 46-514 (natural protein)", "chain": "EHNYEDIAQEFIDFIYKNPTTYHVVSFFAELLDKHNFKYLSEKSNWQDSIGEDGGKFYTIRNGTNLSAFILGKNWRAEKGVGVIGSHVDALTVKLKPVSFKDTAEGYGRIAVAPYGGTLNELWLDRDLGIGGRLLYKKKGTNEIKSALVDSTPLPVCRIPSLAPHFGKPAEGPFDKEDQTIPVIGFPTPDEEGNEPPTDDEKKSPLFGKHCIHLLRYVAKLAGVEVSELIQMDLDLFDVQKGTIGGIGKHFLFAPRLDDRLCSFAAMIALICYAKDVNTEESDLFSTVTLYDNEEIGSLTRQGAKGGLLESVVERSSSAFTKKPVDLHTVWANSIILSADVNHLYNPNFPEVYLKNHFPVPNVGITLSLDPNGHMATDVVGTALVEELARRNGDKVQYFQIKNNSRSGGTIGPSLASQTGARTIDLGIAQLSMHSIRAATGSKDVGLGVKFFNGFFKHWRSVYDEFGEL"}, "B5": {"name": "Saccharomyces cerevisiae prApe1 (vacuolar aminopeptidase I with its N-terminal propeptide) (natural protein, S. cerevisiae, UniProt P14904 1-514, looked up)", "chain": "MEEQREILEQLKKTLQMLTVEPSKNNQIANEEKEKKENENSWCILEHNYEDIAQEFIDFIYKNPTTYHVVSFFAELLDKHNFKYLSEKSNWQDSIGEDGGKFYTIRNGTNLSAFILGKNWRAEKGVGVIGSHVDALTVKLKPVSFKDTAEGYGRIAVAPYGGTLNELWLDRDLGIGGRLLYKKKGTNEIKSALVDSTPLPVCRIPSLAPHFGKPAEGPFDKEDQTIPVIGFPTPDEEGNEPPTDDEKKSPLFGKHCIHLLRYVAKLAGVEVSELIQMDLDLFDVQKGTIGGIGKHFLFAPRLDDRLCSFAAMIALICYAKDVNTEESDLFSTVTLYDNEEIGSLTRQGAKGGLLESVVERSSSAFTKKPVDLHTVWANSIILSADVNHLYNPNFPEVYLKNHFPVPNVGITLSLDPNGHMATDVVGTALVEELARRNGDKVQYFQIKNNSRSGGTIGPSLASQTGARTIDLGIAQLSMHSIRAATGSKDVGLGVKFFNGFFKHWRSVYDEFGEL", "notes": "vacuolar aminopeptidase I (Ape1) of S. cerevisiae, 55-kDa zymogen including the N-terminal propeptide; only TEV cleavage of MBP is described there; also called sc-prApe1; full-length prApe1; source: Sf21, purified (glutathione beads, 3C cleavage, Superose 6); also co-expressed with MBP-Atg19 in Sf21 and co-purified on amylose beads; not shown: GST, N-terminal, cleaved; copies: 12"}, "B6": {"name": "Saccharomyces cerevisiae Atg19 (MBP tag cleaved) (natural protein, S. cerevisiae, UniProt P35193 1-415, looked up)", "chain": "B3 chain", "notes": "autophagy receptor Atg19 of S. cerevisiae, from cDNA; also called trimeric Atg19; source: Sf21, purified (amylose beads, TEV cleavage, DEAE ion exchange); or co-purified with prApe1 (amylose beads, TEV cleavage, Superose 6); not shown: MBP, N-terminal, cleaved"}},
  "key": {"[1]": {"molecular_target": "Chaetomium thermophilum mApe1 (Chaetomium thermophilum)", "experiment": "negative stain EM; purified protein or purified complex, 2% uranyl acetate, droplet technique; particles and class averages"}, "[2]": {"molecular_target": "Chaetomium thermophilum mApe1 (Chaetomium thermophilum)", "experiment": "crystal structure; ct-mApe1, hanging drop, 4 C, 100 mM Hepes pH 6.6, 4 M sodium formate; 2.8 A"}, "[3]": {"molecular_target": "the molecule itself", "experiment": "cryo-EM structure; His6-Ams1 0.4 mg/ml in 50 mM Tris-HCl, 175 mM NaCl, 75 mM imidazole; D2 symmetry, 6.3 A"}, "[4]": {"molecular_target": "the molecule itself", "experiment": "negative stain EM; purified protein or purified complex, 2% uranyl acetate, droplet technique; particles and class averages"}, "[5]": {"molecular_target": "B1", "experiment": "pull-down; purified MBP-Atg19 or MBP (1 uM) mixed with his-Ams1 (1 uM), mApe1 (1 uM) or prApe1 (0.7 uM) overnight at 4 C in 50 mM Tris-HCl pH 7.5, 25 mM NaCl, 5 mM MgCl2, 1 mM DTT, 0.2% NP-40; captured on amylose beads; SDS-PAGE, Coomassie", "settings": "both partners purified"}, "[6]": {"molecular_target": "T1, Saccharomyces cerevisiae mApe1 (mature Ape1 lacking the N-terminal propeptide) (S. cerevisiae), P14904", "T1 chain": "B4 chain", "experiment": "negative stain EM; GraFix-purified sc-mApe1 (10-30% glycerol with 0-0.15% glutaraldehyde gradient, 50 mM Hepes pH 7.5, 150 mM NaCl); 3D reconstruction with tetrahedral symmetry, 24 A", "settings": "remark: other sources report otherwise"}, "[7]": {"molecular_target": "T1, Saccharomyces cerevisiae mApe1 (mature …)", "experiment": "negative stain EM; purified protein or purified complex, 2% uranyl acetate, droplet technique; particles and class averages", "settings": "remark: other sources report otherwise"}, "[8]": {"molecular_target": "the molecule itself", "experiment": "SEC-MALS; Atg19 about 2 mg/ml, 50 mM Tris pH 7.5, 150 mM NaCl, 0.5 mM TCEP, Superose 6 increase, room temperature, triplicate"}},
  "note": "Substitutions are numbered along the chain they refer to. Numbers in names are those of the source. Where “and” joins values, the source holds several entries; their conditions need not be identical. Identical values can stand only once.",
  "data": [
    {"molecule": "Chaetomium thermophilum mApe1 (natural protein)", "values": [
      {"measurement": "stoichiometry N", "setting": "[1]", "value": 12},
      {"measurement": "stoichiometry N", "setting": "[2]", "value": 12}
    ]},
    {"molecule": "B1", "values": [
      {"measurement": "stoichiometry N", "setting": "[3]", "value": 4}
    ]},
    {"molecule": "B2", "values": [
      {"measurement": "stoichiometry N", "setting": "[4]", "value": 2}
    ]},
    {"molecule": "B3", "values": [
      {"measurement": "binding result", "setting": "[5]", "value": "binds"}
    ]},
    {"molecule": "B4", "values": [
      {"measurement": "stoichiometry N", "setting": "[6]", "value": 12},
      {"measurement": "stoichiometry N", "setting": "[7]", "value": "12 and 6"}
    ]},
    {"molecule": "B5", "values": [
      {"measurement": "stoichiometry N", "setting": "[4]", "value": 12}
    ]},
    {"molecule": "B6", "values": [
      {"measurement": "stoichiometry N", "setting": "[8]", "value": 3}
    ]}
  ]
}
